Assay results as given in the supplement of paper PMC9112550, “Optimization of the antimicrobial peptide Bac7 by deep mutational scanning” (BMC Biology, 2022).

Each sequence was assayed on Escherichia coli TOP10 (assay: shrunken log2 fold change of peptide-encoding DNA abundance (4.5 h post-induction vs induction); higher = less antimicrobial activity (less host growth inhibition)). Details: time post-induction: 4.5 h; library: site-saturation at positions 5, 18, 19, 20.
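Also: peptides expressed intracellularly from a pBAD plasmid library in pooled LB shake-flask culture, induced with 0.3% L-arabinose, DNA abundance read by NGS, three biological replicates, DESeq2 with apeglm shrinkage.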

Sequence | shrunken log2 fold change
RRIRLRPPRLPRPRPRPEILPRP | 0.0325
RRIRSRPPRLPRPRPRPDNGPRP | -0.232
RRIRMRPPRLPRPRPRPLAPPRP | 0.735
RRIRCRPPRLPRPRPRPLQLPRP | -0.546
RRIRDRPPRLPRPRPRPDIQPRP | -0.228
RRIRERPPRLPRPRPRPPAWPRP | 0.0898
RRIRKRPPRLPRPRPRPCRLPRP | -0.298
RRIRWRPPRLPRPRPRPKYKPRP | -0.558
RRIRQRPPRLPRPRPRPVAYPRP | -0.0015
RRIRFRPPRLPRPRPRPLDKPRP | -0.103
RRIRWRPPRLPRPRPRPAEFPRP | 0.292
RRIRMRPPRLPRPRPRPYVIPRP | -0.125
RRIRCRPPRLPRPRPRPIPPPRP | 0.265
RRIRLRPPRLPRPRPRPQVIPRP | -0.136
RRIRDRPPRLPRPRPRPTRGPRP | 0.67
RRIRRRPPRLPRPRPRPNKAPRP | 0.158
RRIRVRPPRLPRPRPRPWESPRP | 0.0528
RRIRERPPRLPRPRPRPEVFPRP | 0.0133
RRIRVRPPRLPRPRPRPSTNPRP | -0.146
RRIRHRPPRLPRPRPRPYFFPRP | -0.485
RRIRERPPRLPRPRPRPRDCPRP | 0.112
RRIRARPPRLPRPRPRPSEDPRP | 0.396
RRIRSRPPRLPRPRPRPKQPPRP | 0.0683
RRIRQRPPRLPRPRPRPPYFPRP | 0.245
RRIRCRPPRLPRPRPRPTAGPRP | 0.411

Sequence | shrunken log2 fold change
RRIRNRPPRLPRPRPRPKITPRP | -0.367
RRIRPRPPRLPRPRPRPYIFPRP | -0.984
RRIRFRPPRLPRPRPRPLPNPRP | 0.184
RRIRPRPPRLPRPRPRPHWGPRP | 0.0167
RRIRIRPPRLPRPRPRPQNAPRP | -0.297
RRIRCRPPRLPRPRPRPHGTPRP | -0.0488
RRIRHRPPRLPRPRPRPNDWPRP | 0.339
RRIRTRPPRLPRPRPRPHCRPRP | -0.0822
RRIRVRPPRLPRPRPRPIDQPRP | 0.216
RRIRLRPPRLPRPRPRPLVHPRP | -0.0413
RRIRRRPPRLPRPRPRPQQVPRP | -0.0275
RRIRIRPPRLPRPRPRPLVQPRP | -0.884
RRIRARPPRLPRPRPRPARAPRP | 0.834
RRIRCRPPRLPRPRPRPDDSPRP | 0.14
RRIRVRPPRLPRPRPRPWIPPRP | -0.513
RRIRGRPPRLPRPRPRPPYSPRP | -0.084
RRIRYRPPRLPRPRPRPGWCPRP | -0.128
RRIRIRPPRLPRPRPRPQNMPRP | -0.235
RRIRNRPPRLPRPRPRPEDEPRP | -0.0168
RRIRPRPPRLPRPRPRPPCSPRP | -0.232
RRIRWRPPRLPRPRPRPTFVPRP | -0.183
RRIRFRPPRLPRPRPRPLEYPRP | -0.474
RRIRERPPRLPRPRPRPAKWPRP | 0.0478
RRIRCRPPRLPRPRPRPKIDPRP | -0.0573
RRIRPRPPRLPRPRPRPFAKPRP | 0.0716

Sequence | shrunken log2 fold change
RRIRPRPPRLPRPRPRPSMKPRP | -0.223
RRIRCRPPRLPRPRPRPFYHPRP | -0.668
RRIRNRPPRLPRPRPRPYESPRP | -0.829
RRIRDRPPRLPRPRPRPIKAPRP | -0.149
RRIRYRPPRLPRPRPRPAHYPRP | -0.18
RRIRQRPPRLPRPRPRPKGCPRP | -0.0208
RRIRLRPPRLPRPRPRPFMEPRP | -0.35
RRIRARPPRLPRPRPRPYADPRP | 0.103
RRIRERPPRLPRPRPRPTYRPRP | -0.0372
RRIRWRPPRLPRPRPRPTWFPRP | -0.0378
RRIRIRPPRLPRPRPRPKAWPRP | 0.0719
RRIRSRPPRLPRPRPRPMGHPRP | -0.256
RRIRYRPPRLPRPRPRPLYVPRP | -0.465
RRIRGRPPRLPRPRPRPGQVPRP | 0.11
RRIRLRPPRLPRPRPRPSMWPRP | 0.0718
RRIRRRPPRLPRPRPRPMFEPRP | 0.266
RRIRNRPPRLPRPRPRPTPDPRP | 0.17
RRIRNRPPRLPRPRPRPRIKPRP | 0.0822
RRIRFRPPRLPRPRPRPTSMPRP | -0.00284
RRIRMRPPRLPRPRPRPQGMPRP | 0.0363
RRIRNRPPRLPRPRPRPFMHPRP | -0.142
RRIRFRPPRLPRPRPRPNFTPRP | -0.0305
RRIRYRPPRLPRPRPRPRARPRP | 2.17
RRIRIRPPRLPRPRPRPRSRPRP | 0.0781
RRIRFRPPRLPRPRPRPWGTPRP | -0.131

Sequence | shrunken log2 fold change
RRIRRRPPRLPRPRPRPYDPPRP | 0.0185
RRIRPRPPRLPRPRPRPSLGPRP | 0.342
RRIRLRPPRLPRPRPRPYSWPRP | -0.176
RRIRRRPPRLPRPRPRPISKPRP | -0.198
RRIRIRPPRLPRPRPRPAPRPRP | 0.733
RRIRLRPPRLPRPRPRPIKCPRP | -0.152
RRIRIRPPRLPRPRPRPDRLPRP | -0.453
RRIRARPPRLPRPRPRPCEYPRP | -0.133
RRIRLRPPRLPRPRPRPAGEPRP | -0.0968
RRIRDRPPRLPRPRPRPANHPRP | -0.438
RRIRERPPRLPRPRPRPEKCPRP | -0.00149
RRIRWRPPRLPRPRPRPTKTPRP | 0.0481
RRIRSRPPRLPRPRPRPNAMPRP | -0.0346
RRIRSRPPRLPRPRPRPWDWPRP | 0.676
RRIRFRPPRLPRPRPRPCMCPRP | -0.544
RRIRYRPPRLPRPRPRPHRYPRP | -0.41
RRIRCRPPRLPRPRPRPLMWPRP | -0.185
RRIRIRPPRLPRPRPRPDEGPRP | -0.22
RRIRQRPPRLPRPRPRPVHYPRP | -0.0228
RRIRVRPPRLPRPRPRPEVYPRP | -0.0457
RRIRTRPPRLPRPRPRPVLHPRP | -0.139
RRIRSRPPRLPRPRPRPHEIPRP | -0.346
RRIRTRPPRLPRPRPRPVGKPRP | 0.0504
RRIRDRPPRLPRPRPRPFTIPRP | -0.0247
RRIRDRPPRLPRPRPRPNNFPRP | -0.418

Sequence | shrunken log2 fold change
RRIRWRPPRLPRPRPRPCQVPRP | -0.0191
RRIRMRPPRLPRPRPRPRIEPRP | -0.0903
RRIRDRPPRLPRPRPRPGITPRP | 0.297
RRIRLRPPRLPRPRPRPCPVPRP | -0.393
RRIRFRPPRLPRPRPRPWMAPRP | -0.254
RRIRLRPPRLPRPRPRPKAFPRP | 0.0112
RRIRMRPPRLPRPRPRPTQEPRP | 0.433
RRIRERPPRLPRPRPRPDKGPRP | -0.0116
RRIRIRPPRLPRPRPRPLYPPRP | -0.561
RRIRWRPPRLPRPRPRPILPPRP | -0.0759
RRIRGRPPRLPRPRPRPYVIPRP | -0.0899
RRIRWRPPRLPRPRPRPPPFPRP | 0.22
RRIRQRPPRLPRPRPRPWTTPRP | -0.0827
RRIRYRPPRLPRPRPRPKNFPRP | -0.663
RRIRKRPPRLPRPRPRPTPDPRP | 0.559
RRIRTRPPRLPRPRPRPQALPRP | 0.231
RRIRMRPPRLPRPRPRPCDTPRP | 0.13
RRIRQRPPRLPRPRPRPENTPRP | -0.387
RRIRWRPPRLPRPRPRPDNQPRP | -0.265
RRIRTRPPRLPRPRPRPNFVPRP | 0.0615
RRIRNRPPRLPRPRPRPATTPRP | 0.272
RRIRARPPRLPRPRPRPQVHPRP | 0.102
RRIRSRPPRLPRPRPRPEFVPRP | 0.00503
RRIRLRPPRLPRPRPRPVCQPRP | 0.155
RRIRHRPPRLPRPRPRPCKIPRP | -0.036

Sequence | shrunken log2 fold change
RRIRQRPPRLPRPRPRPRHTPRP | -0.147
RRIRNRPPRLPRPRPRPGKFPRP | -0.034
RRIRRRPPRLPRPRPRPKPFPRP | 0.655
RRIRARPPRLPRPRPRPGQCPRP | 0.203
RRIRRRPPRLPRPRPRPHYDPRP | -0.124
RRIRCRPPRLPRPRPRPTIDPRP | 0.0362
RRIRLRPPRLPRPRPRPMREPRP | 1.25
RRIRVRPPRLPRPRPRPTWNPRP | 0.13
RRIRERPPRLPRPRPRPGRFPRP | 0.0216
RRIRIRPPRLPRPRPRPNIWPRP | 0.127
RRIRSRPPRLPRPRPRPSWMPRP | -0.0505
RRIRNRPPRLPRPRPRPSVEPRP | -0.254
RRIRMRPPRLPRPRPRPANAPRP | 0.442
RRIRCRPPRLPRPRPRPYGHPRP | -0.0546
RRIRKRPPRLPRPRPRPTPGPRP | 0.683
RRIRPRPPRLPRPRPRPCNHPRP | -0.227
RRIRPRPPRLPRPRPRPEHGPRP | -0.0552
RRIRIRPPRLPRPRPRPEKRPRP | -0.0249
RRIRSRPPRLPRPRPRPEHHPRP | -0.153
RRIRFRPPRLPRPRPRPVAVPRP | 0.105
RRIRMRPPRLPRPRPRPHLQPRP | 0.0376
RRIRFRPPRLPRPRPRPRRMPRP | 0.397
RRIRMRPPRLPRPRPRPQCNPRP | 0.041
RRIRERPPRLPRPRPRPHWTPRP | -0.0453
RRIRARPPRLPRPRPRPCMYPRP | -0.49
